Reference: US5968815

Key:
[1] = target: Nef (SIV) peptide 221-235 (SIV strain Mac251)
[2] = target: Nef (SIV) peptide 16-30 (SIV strain Mac251)
[3] = target: Nef (SIV) peptide 84-96 (SIV strain Mac251)
[4] = target: Nef (SIV) peptide 1-15 (SIV strain Mac251)
[5] = target: Nef (SIV) peptide 40-60 (SIV strain Mac251)
mouse CD8 (LYT2) (mouse) = mouse CD8 (LYT2) (mouse) (UniProt P01731)
mouse CD4 (L3T4) (mouse) = mouse CD4 (L3T4) (mouse) (UniProt P06332)

| Substance | proliferation of lymph node cells (cpm) [1] | proliferation of lymph node cells (cpm) [2] | proliferation of lymph node cells (cpm) [3] | proliferation of lymph node cells (cpm) [4] | proliferation of lymph node cells (cpm) [5] | inhibition of the proliferative response of LN cells to beta-galactosidase (mouse CD8 (LYT2) (mouse)) | inhibition of the proliferative response of LN cells to beta-galactosidase (mouse CD4 (L3T4) (mouse)) |
| --- | --- | --- | --- | --- | --- | --- | --- |
| lymph node cells of Balb/c mice immunised with non-recombinant BCG strain 1173P2 (cells without a defined receptor) | < 2500 cpm | < 2500 cpm | 5000 cpm | < 2500 cpm | < 2500 cpm |  |  |
| anti-CD8 monoclonal antibody, hybridoma H35 17-2 (rat anti-mouse LYT2) |  |  |  |  |  | 30% |  |
| anti-CD4 monoclonal antibody, hybridoma GK 1-5 (rat anti-mouse L3T4) |  |  |  |  |  |  | 70% |
| lymph node cells of unimmunized rats (control of FIG. 14) (cells without a defined receptor) | < 250 cpm | < 250 cpm | < 250 cpm | < 250 cpm | < 250 cpm |  |  |
